The target of the assay is T1, recombinant soluble integrin αvβ3 (UniProt P06756 31-992; P05106 27-718).
T1 construct: extracellular domain; 'extracellular domain' is my reading of that; Made in CHO K1 cells and purified on Ni-NTA; The docking simulation used PDB 1L5G; also called soluble αvβ3
The experiment in a line: Table 2 grade, αvβ3 binding (ELISA-type assay with soluble αvβ3).

The text below walks through data of patent US8168591 (University of California, dated 2012).

T1 sequence (P06756 31-992, chain 1 of 2): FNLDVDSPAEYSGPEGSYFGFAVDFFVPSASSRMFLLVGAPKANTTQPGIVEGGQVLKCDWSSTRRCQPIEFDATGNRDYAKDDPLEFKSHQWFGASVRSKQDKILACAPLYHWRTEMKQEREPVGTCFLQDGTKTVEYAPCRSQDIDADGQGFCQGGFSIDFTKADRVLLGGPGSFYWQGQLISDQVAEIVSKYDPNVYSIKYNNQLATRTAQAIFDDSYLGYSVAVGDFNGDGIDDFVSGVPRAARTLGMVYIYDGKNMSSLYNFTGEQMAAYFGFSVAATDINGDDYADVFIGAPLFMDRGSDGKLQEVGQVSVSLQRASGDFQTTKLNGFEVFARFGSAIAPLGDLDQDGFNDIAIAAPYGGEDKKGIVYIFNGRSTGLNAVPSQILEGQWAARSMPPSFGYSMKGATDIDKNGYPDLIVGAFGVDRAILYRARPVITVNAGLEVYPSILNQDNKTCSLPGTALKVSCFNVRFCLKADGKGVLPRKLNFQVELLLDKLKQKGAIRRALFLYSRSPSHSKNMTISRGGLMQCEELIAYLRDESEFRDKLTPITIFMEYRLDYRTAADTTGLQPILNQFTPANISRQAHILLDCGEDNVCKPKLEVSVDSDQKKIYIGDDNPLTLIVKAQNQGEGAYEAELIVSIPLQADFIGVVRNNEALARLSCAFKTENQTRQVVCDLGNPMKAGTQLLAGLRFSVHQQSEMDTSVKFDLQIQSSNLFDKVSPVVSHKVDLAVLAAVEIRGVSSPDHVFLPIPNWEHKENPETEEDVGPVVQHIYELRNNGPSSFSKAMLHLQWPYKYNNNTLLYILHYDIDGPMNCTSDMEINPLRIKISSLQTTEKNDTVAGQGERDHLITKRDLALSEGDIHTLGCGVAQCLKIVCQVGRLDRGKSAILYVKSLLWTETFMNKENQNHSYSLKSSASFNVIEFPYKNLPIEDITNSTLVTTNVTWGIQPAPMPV
T1 sequence (P05106 27-718, chain 2 of 2): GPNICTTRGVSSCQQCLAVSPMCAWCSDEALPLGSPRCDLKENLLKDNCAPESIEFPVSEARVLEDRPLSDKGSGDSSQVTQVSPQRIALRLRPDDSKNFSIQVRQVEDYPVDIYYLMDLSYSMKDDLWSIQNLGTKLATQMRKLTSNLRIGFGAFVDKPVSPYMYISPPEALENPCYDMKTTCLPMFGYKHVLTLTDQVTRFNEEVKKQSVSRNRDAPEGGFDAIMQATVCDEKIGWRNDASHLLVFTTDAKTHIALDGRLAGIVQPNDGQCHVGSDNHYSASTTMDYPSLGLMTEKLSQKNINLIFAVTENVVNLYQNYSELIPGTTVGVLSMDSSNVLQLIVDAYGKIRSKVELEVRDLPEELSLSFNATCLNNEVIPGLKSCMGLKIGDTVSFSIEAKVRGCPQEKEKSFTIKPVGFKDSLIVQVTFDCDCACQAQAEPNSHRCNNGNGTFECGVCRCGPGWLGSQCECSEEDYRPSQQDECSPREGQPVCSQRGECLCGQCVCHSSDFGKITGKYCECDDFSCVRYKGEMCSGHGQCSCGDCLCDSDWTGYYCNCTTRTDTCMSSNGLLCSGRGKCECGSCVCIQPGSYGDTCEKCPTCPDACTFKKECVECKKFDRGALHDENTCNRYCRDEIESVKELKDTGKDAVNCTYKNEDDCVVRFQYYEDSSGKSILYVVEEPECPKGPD

B1: FGF-1 Glu102/Tyr109/Asn110 to Ala mutant (3×A) (ligand)
chain: FNLPPGNYKKPKLLYCSNGGHFLRILPDGTVDGTRDRSDQHIQLQLSAESVGEVYIKSTETGQYLAMDTDGLLYGSQTPNEECLFLARLEENHAATYISKKHAEKNWFVGLKKNGSCKRGPRTHYGQKAILFLPLPVSSD
notes: also called 3xA; E1 02A/Y109A/Q110A
As for B1, the binding result was “binds”.
